# From US20240043506A1 (GARVAN INSTITUTE OF MEDICAL RESEARCH, published 2024)
# Target: SARS-CoV-2 S protein RBD (residues 319-541 of the S protein), soluble, with C-terminal Avitag and His tag (SARS-CoV-2, UniProt P0DTC2 319-541)
row,Binder,Kd [nM]
1,"O4C12 (antibody, V domains shown) VH: EVQLLESGGGLVQPGGSLRLSCAASGFRISDEDMGWVRQAPGKGLEWVSYIDNAGASTYYADSVKGRFTISRDNSKNTLYLQMNSLRAEDTAVYYCAKQINQGEGFDYWGQGTLVTVSS VL: DIQMTQSPSSLSASVGDRVTITCRASQSISSYLNWYQQKPGKAPKLLIYYASNLQSGVPSRFSGSGSGTDFTLTISSLQPEDFATYYCQQGLGMPITFGQGTKVEIK",23
2,"O4G1 (antibody, V domains shown) VH: EVQLLESGGGLVQPGGSLRLSCAASGFRFDYEDMGWVRQAPGKGLEWVSSIDSHGASTYYADSVKGRFTISRDNSKNTLYLQMNSLRAEDTAVYYCAKYSHSVSYGPFDYWGQGTLVTVSS VL: DIQMTQSPSSLSASVGDRVTITCRASQYIYDDLNWYQQKPGKAPKLLIYSASSLQSGVPSRFSGSGSGTDFTLTISSLQPEDFATYYCQQTNTYPQTFGQGTKVEIK",19
